Results from article doi:10.1101/557751.

Key:
Experiment in all cases: EMSA
[1] = target: T1, CsiR (Pseudomonas putida (KT2440?)) (UniProt Q88IU1)
T1 sequence: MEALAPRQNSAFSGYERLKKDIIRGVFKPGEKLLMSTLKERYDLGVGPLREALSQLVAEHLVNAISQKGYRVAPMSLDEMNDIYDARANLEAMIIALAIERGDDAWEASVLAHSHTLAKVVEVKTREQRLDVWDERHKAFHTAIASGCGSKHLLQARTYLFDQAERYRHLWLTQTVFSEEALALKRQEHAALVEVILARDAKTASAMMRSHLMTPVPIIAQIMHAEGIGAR

[2] = target: T2, GcdR (Pseudomonas putida (KT2440?)) (UniProt Q88RH3)
T2 sequence: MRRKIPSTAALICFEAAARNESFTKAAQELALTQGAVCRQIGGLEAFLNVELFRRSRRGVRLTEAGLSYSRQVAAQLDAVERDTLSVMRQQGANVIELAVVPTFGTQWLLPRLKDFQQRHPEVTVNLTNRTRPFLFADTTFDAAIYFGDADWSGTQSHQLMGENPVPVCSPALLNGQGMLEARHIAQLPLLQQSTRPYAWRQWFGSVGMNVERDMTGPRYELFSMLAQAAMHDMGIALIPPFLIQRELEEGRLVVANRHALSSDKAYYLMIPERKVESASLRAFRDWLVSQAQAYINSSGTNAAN

[3] = tested on: CsiR (Pseudomonas putida (KT2440?))
[4] = tested on: GcdR (Pseudomonas putida (KT2440?))

AGTTCGATCTGCGTAAAGGCGTTCATGGCAGTGTCCTGGCTAAAAAAGTAGATGGCGCCGTCCGGTCATGACCTGGATCAGTGCGGGCGAGGTAAAAATATCGCCACTAACTGAAAATGTCTACATTTTTATTTTTCAACGACACTACTCGTGTTTGTCCATTGTTTTTCGTCAGCAGAGGGTTTCGGTATGATCGGCAAAACGTTTTGAGGAACAGGATCTTGGAAGCGCTCGCCCCCCGACAAAACTCAGCATTCAGCGGG (double strand) [csiR-csiD intergenic probe]
Kd [1]: 30 nM

CGGGTCGATCCAGTTGAAACTTGCTTTACCGACCATGAGCGAATCCTCGAAATAGGGGTCAGTTTCTTGTGCCTTTGAGCCTAGGCCTGATCGGCTGCGGCGACAAACGAGGATTGCGCACCGATTAGTGATATTTTGTCACTCCGTAAATCGGCAAAACGCCTTATTGACAGCCTTACAAGTGAGGTTGACGTACATGC (double strand) [gcdR intergenic probe]
Kd [2]: 62.5 nM

csiR-csiD intergenic probe
Kd [3]: 30 nM

gcdR intergenic probe
Kd [4]: 62.5 nM
